Paper PMC10661074 (Protein Science : A Publication of the Protein Society, 2023)
Numbering of substitutions follows the chain as printed.

Columns and labels:
[1] = biological target: the molecule itself; experiment: SEC; analytical HP‐SEC, Agilent AdvanceBio SEC 300 Å column, phosphate‐buffered saline pH 7.4, 1.0 mL/min, UV 220 and 280 nm; purified ferritins before the pH jump
[2] = biological target: T1, His‐tagged TfR1 (UniProt P02786 101-760); experiment: BLI; Octet N2; His‐tagged TfR1 (50 μg/mL) immobilised on Ni‐NTA biosensors; HFt 25–500 nM or HFt‐W4 loaded with ellipticine 50–400 nM in solution; single exponential fits; conditions: both partners purified
T1 construct: transferrin receptor 1 (TfR1); No catalogue number is printed; also called transferrin receptor TfR1; TfR1 receptor; source: bought: Merck
T1 sequence (P02786 101-760): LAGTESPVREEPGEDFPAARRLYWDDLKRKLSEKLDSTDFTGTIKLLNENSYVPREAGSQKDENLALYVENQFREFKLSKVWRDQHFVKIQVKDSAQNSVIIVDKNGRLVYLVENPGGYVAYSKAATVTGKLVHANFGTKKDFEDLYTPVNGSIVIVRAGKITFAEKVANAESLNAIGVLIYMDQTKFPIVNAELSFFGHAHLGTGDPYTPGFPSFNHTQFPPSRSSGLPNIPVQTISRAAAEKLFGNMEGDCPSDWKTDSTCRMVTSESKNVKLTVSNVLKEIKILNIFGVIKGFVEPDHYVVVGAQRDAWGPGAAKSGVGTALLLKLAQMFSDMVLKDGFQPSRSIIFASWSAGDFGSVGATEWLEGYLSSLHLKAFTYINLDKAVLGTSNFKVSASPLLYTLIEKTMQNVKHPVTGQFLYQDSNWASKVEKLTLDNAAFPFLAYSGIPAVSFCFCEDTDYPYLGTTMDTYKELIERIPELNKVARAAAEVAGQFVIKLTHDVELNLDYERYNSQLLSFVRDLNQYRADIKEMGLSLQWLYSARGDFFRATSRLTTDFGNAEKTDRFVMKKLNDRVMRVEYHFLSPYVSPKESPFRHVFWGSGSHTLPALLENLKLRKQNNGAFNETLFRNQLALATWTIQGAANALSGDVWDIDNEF

B1: HFt‐W4 (natural protein, human, UniProt P02794 1-183, looked up)
chain: MTTASTSQVRQNYHQDSEAAINRQINLELYASYVYLSMSYYFDRDDVALKNFAKYFLWQSWEEREHAEKLMKLQNQRGGRIFLQDIKKPDCDDWESGLNAMECALHLEKNVNQSLLELHKLATDKNDPWLCDFIETHYLNEQVKAIKELGDWVTNLRKMGAPESGLAEYLFDKHTLGDSDNES
notes: human ferritin heavy chain (H ferritin) with four substitutions to tryptophan; synthetic gene in pET22b; 24-mer cage; In the BLI experiment the cage was loaded with ellipticine (a small molecule, about 98 molecules per cage) by a pH jump; the protein is the same; also called HFt‐W4 mutant; hydrophobicity‐enhanced ferritin nanoparticle; source: E. coli, purified (ammonium sulfate fractionation, …)
For B1, the “stoichiometry N” value [1] was 24 and the Kd [2] was 25 nM.

B2: HFt‐W6 (natural protein, human, UniProt P02794 1-183, looked up)
chain: B1 chain with Y138W, F171W
notes: human ferritin heavy chain (H ferritin) with six substitutions to tryptophan; synthetic gene in pET22b; 24-mer cage as purified; also called HFt‐W6 mutant; source: E. coli, purified (ammonium sulfate fractionation, heat treatment at 70°C, DNase, Superdex 200 SEC); copies: 24
In the case of B2, the “stoichiometry N” value [1] is reported as 24.
